The target in the data set is T1, amphioxus ER (amphiER) (Branchiostoma floridae, UniProt B3V8B7 1-705).
T1 sequence: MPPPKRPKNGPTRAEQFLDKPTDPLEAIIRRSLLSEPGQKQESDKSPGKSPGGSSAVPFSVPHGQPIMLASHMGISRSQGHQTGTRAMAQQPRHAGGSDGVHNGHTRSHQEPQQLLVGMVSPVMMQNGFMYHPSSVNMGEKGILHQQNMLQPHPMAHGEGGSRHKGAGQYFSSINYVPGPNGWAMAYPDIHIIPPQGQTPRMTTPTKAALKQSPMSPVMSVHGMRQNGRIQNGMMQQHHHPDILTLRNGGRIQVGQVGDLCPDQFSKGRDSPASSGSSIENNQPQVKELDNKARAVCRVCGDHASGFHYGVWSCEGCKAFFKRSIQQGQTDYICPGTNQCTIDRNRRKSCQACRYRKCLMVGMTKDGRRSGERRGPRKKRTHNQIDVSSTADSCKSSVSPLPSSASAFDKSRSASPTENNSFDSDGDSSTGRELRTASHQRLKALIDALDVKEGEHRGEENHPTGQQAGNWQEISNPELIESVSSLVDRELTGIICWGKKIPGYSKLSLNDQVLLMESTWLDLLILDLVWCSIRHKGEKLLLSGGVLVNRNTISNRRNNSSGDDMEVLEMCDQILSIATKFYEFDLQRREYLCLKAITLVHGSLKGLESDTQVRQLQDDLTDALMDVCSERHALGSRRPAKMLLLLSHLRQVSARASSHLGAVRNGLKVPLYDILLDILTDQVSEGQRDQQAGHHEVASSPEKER
Description: EMSA; EMSA as previously described (ref 93); buffer, salt, pH and temperature not given; in vitro translated proteins in reticulocyte lysate; 10- and 100-fold molar excess of competitors. Particulars: protein: ivt; chain copies: 2; label: 32P; blunt (only one strand printed; 30 bp stated; strand is nearly self-complementary). (Mobility shift assays separate free from complexed probe on a gel.)

B1: consensus ERE (dsDNA)
DNA 1: CGGGCCGAGGTCACAGTGACCTCGGCCCGT
DNA 2: ACGGGCCGAGGTCACTGTGACCTCGGCCCG
For B1, the binding result is given as “binds”.

Values taken from article PMC2529310, “An amphioxus orthologue of the estrogen receptor that does not bind estradiol: Insights into estrogen receptor evolution”.
